Data reported in patent US12129294B2, “Methods of treatment of diseases in which IL-13 activity is detrimental using anti-IL-13 antibodies” (AbbVie Inc., priority 2016, dated 2024).
Entries after “also recorded” stand apart in the source; their conditions may differ.

How the values were obtained:
[1] = tested on: subjects with symptomatic eosinophilic esophagitis (EoE); test: Phase 2 study in EoE patients: peak esophageal eosinophil count; type: in vivo, human; settings: for peak esophageal eosinophil count, Mean change / peak esophageal eosinophil count, LSMD versus placebo: Change to Week 16; for peak esophageal eosinophil count, LSMD versus placebo: ANCOVA
Description: North America and Switzerland. […] Safety was monitored throughout the study. […] The study was powered for the primary endpoint. […] To maximize consistency, biopsies were obtained from proximal and distal esophagus (i.e., 4 biopsy fragments from each level) at screening. Additional biopsies from mid-esophagus was encouraged and effort was made to obtain subsequent biopsies from the same levels. The biopsies were blinded and read by single central pathologist. To be eligible for trial, subjects were evaluated for peak eosinophil count of ≥15/HPF, from 2 of 3 (proximal, mid-, and/or distal) levels of the esophagus at the screening endoscopy. Next, the effectiveness of RPC4046 (over placebo) in lowering peak esophageal eosinophil count in EoE subjects at week 16 was analyzed.

[2] = tested on: subjects with symptomatic eosinophilic esophagitis (EoE); test: Phase 2 study in EoE patients: safety, treatment-emergent adverse events (TEAE)
Description: A double-blind, placebo-controlled, dose-finding study was conducted at 40 canters in North America and Switzerland. Patients with EoE (n=100, aged 18-65) were randomized to 180 mg (low dose; LD) or 360 mg (high dose; HD) RPC4046 or PBO (1:1:1) in a Day 1 intravenous loading dose, followed by weekly subcutaneous doses for 15 weeks. […] Safety was monitored throughout the study.
Additionally, various safety and tolerability endpoints are also measurable. Safety and tolerability parameters are evaluated by the incidence, severity, and relationship of adverse events (AEs), serious AEs (SAEs), clinical laboratory abnormalities, changes in vital signs, physical examination abnormalities, and the presence of anti-drug antibodies.

[3] = tested on: subjects with symptomatic eosinophilic esophagitis (EoE); test: Phase 2 study in EoE patients: subject's global impression; type: in vivo, human; settings: therapy arm; week 16
Description: Safety was monitored throughout the study. […] The study was powered for the primary endpoint.

[4] = 180 mg (N = 31), safety population
[5] = 360 mg (N = 34), safety population

B1: RPC4046: recombinant humanized, high-affinity, selective anti-IL-13 monoclonal antibody; heavy chain variable region SEQ ID NO: 2, light chain variable region SEQ ID NO: 3 (antibody, V domains shown)
VH: EVTLRESGPGLVKPTQTLTLTCTLYGFSLSTSDMGVDWIRQPPGKGLEWLAHIWWDDVKRYNPALKSRLTISKDTSKNQVVLKLTSVDPVDTATYYCARTVSSGYIYYAMDYWGQGTLVTVSS
VL: DIQMTQSPSSLSASVGDRVTISCRASQDIRNYLNWYQQKPGKAPKLLIFYTSKLHSGVPSRFSGSGSGTDYTLTISSLQPEDIATYYCQQGNTLPLTFGGGTKVEIK
- peak esophageal eosinophil count, Mean ([1]; 180 mg, Baseline): 131.9 cells/hpf
- peak esophageal eosinophil count, Median ([1]; 180 mg, Baseline): 113.0 cells/hpf
- peak esophageal eosinophil count, Mean change ([1]; 180 mg): −106.6 cells/hpf
- peak esophageal eosinophil count, LSMD versus placebo ([1]; 180 mg): −80.6 cells/hpf
- peak esophageal eosinophil count, Mean ([1]; 180 mg, Week 16): 28.9 cells/hpf
- peak esophageal eosinophil count, Median ([1]; 180 mg, Week 16): 15.0 cells/hpf
- peak esophageal eosinophil count, Mean ([1]; 360 mg, Baseline): 139.4 cells/hpf
- peak esophageal eosinophil count, Median ([1]; 360 mg, Baseline): 132.0 cells/hpf
- peak esophageal eosinophil count, Mean change ([1]; 360 mg): −111.3 cells/hpf
- peak esophageal eosinophil count, LSMD versus placebo ([1]; 360 mg): −79.8 cells/hpf
- peak esophageal eosinophil count, Mean ([1]; 360 mg, Week 16): 31.3 cells/hpf
- peak esophageal eosinophil count, Median ([1]; 360 mg, Week 16): 15.0 cells/hpf
- lowering of esophageal eosinophil counts over placebo at week 16 ([1]; both low (180 mg) and high dose (360 mg)): achieved statistical significance
- Number of subjects experiencing Death related to study drug [2, 4]: 0 n
- Number of subjects experiencing ≥1 TEAE [2, 4]: 20 n
- Number of subjects experiencing ≥1 TEAE leading to study drug d/c [2, 4]: 1 n
- Number of subjects experiencing ≥1 TEAE with fatal outcome [2, 4]: 0 n
- Number of subjects experiencing ≥1 moderate or severe TEAE [2, 4]: 7 n
- Number of subjects experiencing ≥1 possible, probable, or related TEAE [2, 4]: 11 n
- Number of subjects experiencing ≥1 related TEAE [2, 4]: 3 n
- Number of subjects experiencing ≥1 related serious TEAE [2, 4]: 0 n
- Number of subjects experiencing ≥1 serious TEAE [2, 4]: 0 n
- Number of subjects experiencing ≥1 severe TEAE [2, 4]: 2 n
- Subjects experiencing ≥1 TEAE [2, 4]: (64.5) %
- Subjects experiencing ≥1 TEAE leading to study drug d/c [2, 4]: (3.2) %
- Subjects experiencing ≥1 moderate or severe TEAE [2, 4]: (22.6) %
- Subjects experiencing ≥1 possible, probable, or related TEAE [2, 4]: (35.5) %
- Subjects experiencing ≥1 related TEAE [2, 4]: (9.7) %
- Subjects experiencing ≥1 severe TEAE [2, 4]: (6.5) %
- safety and tolerability ([2]; 180 mg and 360 mg, 16-week treatment): well-tolerated with a favorable safety profile; also recorded: generally safe and well-tolerated
- Number of subjects experiencing Death related to study drug [2, 5]: 0 n
- Number of subjects experiencing ≥1 TEAE [2, 5]: 29 n
- Number of subjects experiencing ≥1 TEAE leading to study drug d/c [2, 5]: 3 n
- Number of subjects experiencing ≥1 TEAE with fatal outcome [2, 5]: 0 n
- Number of subjects experiencing ≥1 moderate or severe TEAE [2, 5]: 11 n
- Number of subjects experiencing ≥1 possible, probable, or related TEAE [2, 5]: 18 n
- Number of subjects experiencing ≥1 related TEAE [2, 5]: 5 n
- Number of subjects experiencing ≥1 related serious TEAE [2, 5]: 0 n
- Number of subjects experiencing ≥1 serious TEAE [2, 5]: 1 n
- Number of subjects experiencing ≥1 severe TEAE [2, 5]: 2 n
- Subjects experiencing ≥1 TEAE [2, 5]: (85.3) %
- Subjects experiencing ≥1 TEAE leading to study drug d/c [2, 5]: (8.8) %
- Subjects experiencing ≥1 moderate or severe TEAE [2, 5]: (32.4) %
- Subjects experiencing ≥1 possible, probable, or related TEAE [2, 5]: (52.9) %
- Subjects experiencing ≥1 related TEAE [2, 5]: (14.7) %
- Subjects experiencing ≥1 serious TEAE [2, 5]: (2.9) %
- Subjects experiencing ≥1 severe TEAE [2, 5]: (5.9) %
- most-frequently reported adverse events ([2]; phase 2 study): headache, URI, arthralgia, nasopharyngitis, sinusitis, abdominal pain and oropharyngeal pain
- infusional hypersensitivity events ([2]; treatment groups): no reported instances of infusional hypersensitivity events
- subjects responding as feeling a lot better or a little better compared to placebo [3]: larger number of subjects
